Consider one substance from WO2011147762A2.

Assay [1] concerns the target ED-B fibronectin antigen protein (recombinant), bound to CNBr activated sepharose 4B (UniProt P02751). The assay can be described thus: ED-B sepharose column, % of total radioactivity bound; Study A; inositol 10 mg/mL; day 5.
Assay [2] shares this target. Description: ED-B sepharose column, % of total radioactivity bound; Study B3; thioglycerol 10 mg/mL; day 2.
Assay [3] has the same target. Description: ED-B sepharose column, % of total radioactivity bound; Study B3; ascorbic acid 25 mg/mL; day 3.

Chain of 131I L19-SIP (radioiodinated L19 SIP homodimer) (chain): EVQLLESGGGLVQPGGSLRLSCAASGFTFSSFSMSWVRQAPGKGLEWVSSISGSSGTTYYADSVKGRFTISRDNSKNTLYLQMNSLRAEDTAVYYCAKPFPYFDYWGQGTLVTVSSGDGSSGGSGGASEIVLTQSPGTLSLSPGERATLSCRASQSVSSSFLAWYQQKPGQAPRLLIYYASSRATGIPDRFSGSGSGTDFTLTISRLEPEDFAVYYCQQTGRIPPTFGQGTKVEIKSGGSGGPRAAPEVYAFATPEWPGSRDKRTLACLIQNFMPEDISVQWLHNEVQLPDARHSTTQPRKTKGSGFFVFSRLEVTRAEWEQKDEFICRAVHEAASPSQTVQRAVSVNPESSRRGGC
Chain of 131I L19-SIP (radioiodinated L19 SIP homodimer) (chain): as above
Chain of UniProt P02751 (P02751 1266-1356 limits assumed): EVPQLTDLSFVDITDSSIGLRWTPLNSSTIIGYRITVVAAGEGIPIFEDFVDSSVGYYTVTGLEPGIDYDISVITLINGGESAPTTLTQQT

As to “131I L19-SIP (radioiodinated L19 SIP homodimer)”, the Immunoreactivity (%) in assay [1] was determined as 58.9%. The Immunoreactivity (IR) (%) came to 58.4% in assay [2] and 78.7% in assay [3].
